From the DeepSol protein solubility set come the findings set out here.

This data set in a line: soluble on expression in E. coli; label from the status in PepcDB or PDB records.
With “MGSDKIHHHHHHVKIALDPTPFHHSHTLLEFPRVVADLGYKYMQMTPHADFIPFYNHPKADDELVGQLNKACKDVGIEIASVLPVLRWSGPDEDAREAAVRYWKRVIQITVDLGVSTINTEFSGRPEKAEESERAFYRSMEELLPIIEREGLDLLIDPHPDDFVEEGLAAIRVIRGLNSKNVGLVYVASHSFHMKNAPLDIMRAAGDKLRLVHVADTMNHHASHGLRYITNPPGNPVRVHQHLKIGDGDVNWEEFFGGLQEIGFLDREDTVMVSSVFAEDENAAEVSRYQLVTMNNYIATAR”, the “soluble on expression in E. coli” value is on record as “not soluble”. Turning to “MGSDKIHHHHHHVKTNLEHWVTLQEKGYFENHPFYQERQVNDDAARVEKATPLTKDMKIAIIGCGYGRESASFCRRVRKVYGIDVSWTILAKALERMLADNHVNFTPVLASQWKTILPDGGLDLVYSVVVFQHLTRDLVDDYIGGLKGKLRPGGRFYVQFCDSDTGEADADLRFYEPNVRWTEDDIRILARRHGLDLLSLDSERVTPTASWHWALMEKADDR”, the “soluble on expression in E. coli” value is “not soluble”. The result for “MGSDKIHHHHHHVNYIKRAMENTFLRLAKEFPALLLTGPRQTGKTTMLQKLAAEEKIGRNYVTLDDLTERQMAKNDPKMFLQIHKPPVFIDEVQYAPELFSYIKIHIDRHHRPGDFWLTGSQVFKLMDGVQESLAGRVGLLHMSPMSQAESCGADTTPFILDLEQLTRRVRERNPLDTPALYERIFRGGMPALVSGQYTDHWALYSSYISTYLDRDVKEISGTINSLRFMDFITAAAALCGQMLNYKTIADAAGIDQLTAKGWLGILERLGIIFYLHPYANNMLKRMVTKPKLYFYDCGLVAYLTKWSDSATLMNGAMSGAILENFVVSEIIKSYQNYGREAFIYYYRDKDTKEIDILLEDSGKLYPMEIKKTATPQKQLTRVFNVIDKATLERGTGAVLCTTDRLSAFDSENLIIPIWGI” reads “not soluble”. Next, “MGSDKIHHHHHHVPLLFGTAGVPLSAKERSTEAGVKRVRELQLDAMEVEFVQGVRMGEEKAQKIAQIAVEEKVALSCHGPYWINFNSQEPEKVAASRERLLHSARISKILGVKSVVFHPAFYHQDDPQVVLVRTAGELMKVREILDAEGNDVILRPETTGKPSQLGTLQEVLTLAQAVPGVLPCIDISHLHARSNGRINTYDEFCQVLEAAAESLGDRWVKHVHFHVSGIDYGVKGEKKHLILKESDLRYPELMKAFHTFGVEGLVICESPNLEEDALLLQTTYRTMA”: “not soluble”. Turning to “MGSDKIHHHHHHVPQRTSFNGSTRPAWKNTTALIRNPKIASILATGGTGMVHAALQSGNPSMGVGAGNGAVYIDHTAFLDRAVEDILLSKRFDNSMVCATENSAVVEAPIYDKWLQMIQDKGAYLVPKKDYQKLADFVFNDKRGVNGPVAGMSARWICEHAGVTLSEGKDVLLFELDPKNIGEKLSSEKLSPLLSVYKAKDREDGIRIVKALLDYQGAGHNAAIQIGSQNDPFIDEYGKAVQASRVLVNQPDALGGIGDIYSDGLRPSLILGTGSWGKNSLSHNLSTSDLLNIKTIAKQRNRPQWIRLPEKIFTKKTSLPIFQMKMSRKSAGPLSSLTRAWSSSTSLTRSMNSWL”, the “soluble on expression in E. coli” value is “not soluble”. The result for “MGSDKIHHHHHHVQHDQAPEVYSDLIQMVWALFTPSTVNFFSKGLCANAPFIMEMVDFEALKTVEEDVYLNAYNLTDHKMAIFGKDILDYEHFGATLAYPFIYPPAKVDGKLYLEGAAEDAFNFQGLLEHDEGIRTVVVFDAFGNEGYIQDPPNLWQAWGQNLILPLISLTRHDLAFFEHMLDDWNESHPARQDVELIKVTFPIPPEWLPTALDWSRSNLERMFELGYETGKKFVAEKGVRLGATLPPKPTPAKGRGGAAKKDDDAMFGGASIG” reads “not soluble”. Turning to “MGSDKIHHHHHHVSSLSFNFAPDFRPLAARMRPRSIAEYIGQAHLLGEGQPLRKALEAGRAHSMMLWGPPGTGKTTLAELIAQYSNAHVERISAVTSGVKEIRAAIEQAKAIAESRGQRTLLFVDEVHRFNKSQQDAFLPFIEDGTVIFIGATTENPSFEINNALLSRARVYLIKRLSNNEIAHIVTQALADTERGLGLRQLEMPESVLIKLAQLCDGDARKALNLLELMSDMVSDNDTFTLEMLVQVAGHQVAGFDKNGDQFYDLISAVHKSIRGSAPDAALYWYCRILEGGGDPLYVARRLLAIASEDVGNADPAAMTIALNAWDCFHRVGPAEGERAIAQAIVYLASAPKSNAVYTAFKAARALARETGQESVPHHLRNAPTQLMKEIGMGEGYRYAHDEPNAYASGENYFPESLKTAQFYFPTERGFEKRIKDKLIQLTQLDQVSENKRYD”, the “soluble on expression in E. coli” value was “not soluble”. Consider “MGSDKIHHHHHHVVVFCGMGTLGPSFPEVPWLRLGVMSTDPKPGAEHPHEVENLDNHECWRLLRSVSVGRLAVWVEDHPDIFPINYKVDHGTLVFRTADGTKLQAATGDTPVAVEADGVDADSGVAWSVVIKGQAAPVKNQQEVLDTVGLLLFPWQAGKKEHFVRITPDTVTGRRFKVTPPLTWWTPLDDATRSGFE”, for which the “soluble on expression in E. coli” value is on record as “not soluble”. The result for “MGSDKIHHHHHHVYNEFFHLRTKPFELLPDPDFLYPSKAHRKALAYFEYGLSERSGFILLTGEVGSGKTTLIREMLKRDLGRMVLSKVFNTRVDSTQLVAMINDDFGLETAGRDKMVMLRDLNDFLIDQYAAGRRAVLVIDEAQNLSQELLEEVRMLSNLETDSAKLLQIILVGQPELRDLLRSPALVQLRQRIQVHCHIAPLSQEELREYVLFRLERAGNRDAMEWGEGVFGLMHEATRGIPRLVNILCDYVLLDAYAAGRRSINSAELQDLLAELDFERQFWPVDETSAPAPAAEQQRRTAVRRDASSVARRMMLMLQDLGQRLDVLERGYEKSGPDMLADMAERLGALEKRVTVLAGRVESLHAERMQRGAAPQVQPYRQKPERRKGWFRRVFGGD” reads “not soluble”. As to “MGSEKMIEICIDMEEGEPLGATPNDKLVITKIQAGTISEGKLRIGDQVKKVNGQNCKDCNDFFRALRFAAPCAKITVNRDEKKAEELEARVHIPEDRAKIIQRREGYVYELATLVWVQNGPKLGLGIKHFQNRVLVSRVDPGSLAEKCLVLGDHLCDVDGIPVSDKDVARDLLVKNIQEKGKVTFVVERPDSIDAKQWAKQALATNLMQPPSVQMNEDVKGIASQYRQALPGLKPPAKSAMSTGPNARRVSIIEQTQTHEIGHDHEGKALRKVK”, the “soluble on expression in E. coli” value is given as “soluble”. Regarding “MGSHHHHHHDITSLYKKAGSAAAVLEENLYFQGSFTMRLKELGEFGLIDLIKKTLESKVIGDDTAPVEYCSKKLLLTTDVLNEGVHFLRSYIPEAVGWKAISVNVSDVIANGGLPKWALISLNLPEDLEVSYVERFYIGVKRACEFYKCEVVGGNISKSEKIGISVFLVGETERFVGRDGARLGDSVFVSGTLGDSRAGLELLLMEKEEYEPFELALIQRHLRPTARIDYVKHIQKYANASMDISDGLVADANHLAQRSGVKIEILSEKLPLSNELKMYCEKYGKNPIEYALFGGEDYQLLFTHPKERWNPFLDMTEIGRVEEGEGVFVDGKKVEPKGWKHF”, the “soluble on expression in E. coli” value is “soluble”. On to “MGSHHHHHHSSGLVPRGSHMTIGIDKISFFVPPYYIDMTALAEARNVDPGKFHIGIGQDQMAVNPISQDIVTFAANAAEAILTKEDKEAIDMVIVGTESSIDESKAAAVVLHRLMGIQPFARSFEIKEACYGATAGLQLAKNHVALHPDKKVLVVAADIAKYGLNSGGEPTQGAGAVAMLVASEPRILALKEDNVMLTQDIYDFWRPTGHPYPMVDGPLSNETYIQSFAQVWDEHKKRTGLDFADYDALAFHIPYTKMGKKALLAKISDQTEAEQERILARYEESIIYSRRVGNLYTGSLYLGLISLLENATTLTAGNQIGLFSYGSGAVAEFFTGELVAGYQNHLQKETHLALLDNRTELSIAEYEAMFAETLDTDIDQTLEDELKYSISAINNTVRSYRN”, for which the “soluble on expression in E. coli” value is on record as “soluble”.

With “MGSIILKAFDESTEINGDSLDLGEIQLTPYKGRLTLELLKKPAHTSQEEPGLEQENLYNYTISIYNKTKQAKIKNFNIKPPYIFLNDTNIETGDVIEVTFTHKKDYTLPATIELTLDRLMNASGQAVAKENGKGMASIQSGNQRCELMVYNSDKKFIESCSMNREGKIISNPLKEGVYTFVFISSNNYLWRLNTLEQFEEIGLKEGIHFVKKEVEIKNGEIKDLGLIVVPELNEKELFFTDPDVASYAVVSENNRIGKDIVLRAKYSFRKPIESQTVKLLFRVPDQTFYVKDTLTIDGELVDSVNVSGSFIEVTTTKTEGVVRFNIRPTEAVVCYSNAYVEFKAEGRTVREPLGVVNEVVPYLTIGAPNVTSLEKVYVTGQTLPNLEVKIYDEGSLVGVTKANSTGAWNFQVSLGKDKSYSVHNLSARIEYNDQVIESETLEVIYKKSVPEIEKVTMIHSNQSLILYKNGEIVPKGVYTYVPSQSYTFIVDFVGDSAEEIENLCIVSNRNGEERKLDAKYDPQSKSWIATGSFGYNHVPGSFTVEYNLKKKRLIKEDGELNLEVLEQISTFADQFLYELKKENVMVGLLDENEIGFMLKEDTGGIAIVTIVIGDQPIEREKYEKMGYLFKEIDGKLGAVLLIKDETENKIFTSKVRLASNKTEDSVKSEDDDESSQKETPLVTKDERISMAATIIGELGNIAGSGKVVEAIDFISGIGTAVNTIAFTPANAVTDMGYVQKKLQESENISSEDKERLRDDLFLASGVYNFTVNANFIASLMDGHTRNGTMHKIIDIVIDKYDQYSLGDKLWEDIFGKNEDDRESGKSTKSGKGSSIKLPLQEQKTLVDPSGYVYETVPDNRITDATVTVYYKDENGEMILWNAEEFGQKNPLLTDENGFYAWDVPEGMWQVKVEKEGYETAYSEILPVPPVQTNVNIPLVSYEPPKVGHIYAYPEYIEIAFSKYVKHATLDSESIQLKQGENKVNIKIVYEDEEGNYSKKIKLIPAEKTSFEGKYTLNISKSITSYAGVAMQKAEIRDIEIVAEPKSIEILDKVEIELRKTVAIEIRVLPEEAAKGKKIIVTSGMEEIVSAEDVLLDERGRGKLKLKGNLPGTVDIDLRLEGSAVEKKIQATVKFPEDNGEIIEPPVVLNGDLNRNGIVNDEDYILLKNYLLRGNKLVIDLNVADVNKDGKVNSTDCLFLKKYILGLITI”, the “soluble on expression in E. coli” value was “not soluble”.

“MGSIPRVLISADRSSSGKTTISMGLMAALVSRGYKVQPFKVALDYIDPSYHTEITGRFCRNLDGYLMDEHGILDVYTHACETGGGADIAIIEGVRGLFEGFESLSDVGSTAQIAKILKCPVVFVINARSITRSAAALIGGYKNFDPDVEIAGVILNNIGGRRHAQKAKEAIEHYTGVPVLGIIPRDPSMQISMRHLGLMPALEGLEHHHHHH”: the “soluble on expression in E. coli” value is on record as “not soluble”.

In the case of “MGSNTLLCAKWLRGLRPRSRVNPLLNRALAAVGAGSPAKGRQAAPLAPIPRSSPVKALDQLTFDNRFARLGDAFSTQVLPEPIADPRLVVASESAMALLDLDPAQAELPVFAELFSGHKLWEEADPRAMVYSGHQFGSYNPRLGDGRGLLLAEVLNDAGEHWDLHLKGAGQTPYSRMGDGRAVLRSSIREFLASEALHALGIATSRALCVIGSSTPVWRETRESAAMLTRLAQSHVRFGHFEYFYYTKQPEQQRVLIDHVLEQHYPECREAEQPYLAMFRTIVERNAELIARWQAYGFCHGVMNTDNMSILGITFDFGPYAFLDDFDANFICNHSDDRGRYSYANQVPIAHWNLSALAQALTTVIEVEPLKEALGLFLPLYQAHYLDLMRRRLGLTTAEDDDMVLVERLLQCMQRGGVDYSLFFRKLGEQPVAEALKVARDDFIDLAGFDAWGADYLARCGREPGNAEGRRERMHAVNPLYVLRNYLAQKAIEAAEAGDYSEVRRLHQVLARPFEEQPGMQAYAERPPEWGKHLEISCSSLEHHHHHH”, the “soluble on expression in E. coli” value is “soluble”. The result for “MGSQSETVCVTGASGFIGSWLVMRLLERGYTVRATVRDPTNVKKVKHLLDLPKAETHLTLWKADLADEGSFDEAIKGCTGVFHVATPMDFESKDPENEVIKPTIEGMLGIMKSCAAAKTVRRLVFTSSAGTVNIQEHQLPVYDESCWSDMEFCRAKKMTAWMYFVSKTLAEQAAWKYAKENNIDFITIIPTLVVGPFIMSSMPPSLITALSPITGNEAHYSIIRQGQFVHLDDLCNAHIYLFENPKAEGRYICSSHDCIILDLAKMLREKYPEYNIPTEFKGVDENLKSVCFSSKKLTDLGFEFKYSLEDMFTGAVDTCRAKGLLPPSHEKPVDGKT” reads “soluble”.
